Binding result and EC50 data for 3 molecules are collected here from patent US20250197491A1 (MACOMICS, published 2025).

Assay [1] concerns the target T1, Human full length LILRB2 (human, UniProt Q8N423 22-597).
T1 construct: Over-expressed on HEK293 cells for flow cytometry; Also used here as the parent protein of the D3-D4 peptide microarrays; also called LILRB2 on HEK293 cells
Put plainly: flow cytometry, displacement of PE-labelled HLA-A2, HLA-E and HLA-G multimers from HEK293 cells overexpressing LILRB2. The procedure: (§1) To investigate if the Antibodies 1 to 5 could neutralize binding of other HLA-As to LILRB1 or to LILRB2, HEK293 cells overexpressing the receptors were incubated with constant concentrations of PE-labelled HLA-A2, HLA-E, and HLA-G multimers and increasing concentrations of Antibodies 1 to 5 or the reference antibodies. The ability to neutralize binding of HLA to the cells was determined by flow cytometry (FIG. 21). None of Antibodies 1 to 5 neutralized binding of HLA-A (A), HLA-E (B), and […] to LILRB1 protein, up to the concentrations of 100 nM, whereas Reference 1 antibody (LILRB1 specific) and Reference 3 antibody (LILRB1/2 specific) neutralized the binding with an IC₅₀ in the sub- or low-nM range. Similarly, none of Antibodies 1 to 5 neutralised efficiently the binding of HLA-A (E) and HLA-G (G). […] Reference Antibody 2 (LILRB2 specific) and Reference Antibody 3 (LILRB1/2 specific), inhibited the binding for all HLAs, with IC₅₀ with sub- or low-nM range.

The target of assay [2] is T2, Human LILRA2 ectodomain (human, UniProt Q8N149 24-449).
T2 construct: Recombinant protein from a commercial source
Kind of assay: summary table (single point ELISA); N = No. Background: ELISA stands for enzyme-linked immunosorbent assay.

Assay [3] deals with LILRB4 recombinant, full-length ectodomain (LILRB4 17-257) (human, UniProt Q8NHJ6 22-257). Put plainly: summary table (single point ELISA); N = No.
In assay [4] the target is LILRB5 recombinant, full-length ectodomain (LILRB5 18-456) (human, UniProt O75023 24-456). Put plainly: summary table (single point ELISA); N = No.
For assay [5], the target named is LILRA5 recombinant, full-length ectodomain (LILRA5 42-268) (human, UniProt A6NI73 42-268). Kind of assay: summary table (single point ELISA); N = No.
In assay [6] the target is T3, human LILRB1 ectodomain fused to mIgG2a Fc (human).
T3 construct: also called human LILRB1-mIgG2a; full length LILRB1 ectodomain
Put plainly: summary table (ELISA); Y = Yes.

The target of assay [7] is T4, Human LILRB1(L68P/A93T) ectodomain fused to mIgG2aFc (human).
T4 construct: The entry already carries the two substitutions
Kind of assay: ELISA, antigen coated, 10 nM antibody. From the text:
(§2) FIG. 3. Mixed LILRB1 and LILRB2 expression in TAMs from melanoma cancer patients. Analysis of LILRB1 and LILRB2 detection in macrophages in pre- and post-anti-PD-1 and/or anti-CTLA-4 therapy treated melanoma patients (n=33) is shown using Smart-seq2 data from Sade-Feldman et al. https://pubmed.ncbi.nlm.nih.gov/30633907/FIG. 4. Binding to domains of human LILRB1. Plates were coated with recombinant full length LILRB1 ectodomain (SEQ ID NO: 41) or a protein comprising domain 1 and 2 of human LILRB1 protein (SEQ ID NO: 42), and then incubated with 10 nM Clones 1-5, Reference Ab 1, and Isotype control. The bound antibodies were detected using HRP-labeled secondary antibodies and the results were plotted on the graph as absorbance measured at 450 nm.
(§3) Binding to allelic forms of LILRB1. There are 4 major allelic variants of human LILRB1 protein ectodomain. The variants of LILRB1 were expressed as recombinant proteins comprising a modified LILRB1 ectodomain and mouse IgG2 Fc region (SEQ ID NO: 50 and 51) in suspension CHO cells, and purified by using techniques that were known in the art. These recombinant proteins were then used in the direct enzyme-linked immunosorbent assay (ELISA) to determine the antibodies potential to bind different allelic forms of LILRB1. In short, Maxisorp (Nunc) or similar immune-assay plates were coated with solutions of target proteins in PBS, at 4° C., overnight. Plates were then washed with PBS, blocked with 5% milk in PBS, and washed again. Test antibodies diluted in PBS were then added to the plates and incubated at room temperature for at least 1h. Plates were subsequently washed with PBS/0.05% Tween-20 (PBST) and incubated with a solution of horse radish peroxidase (HRP) labelled secondary antibodies at room temperature for at least 1 h. After washing with PBST and PBS, bound antibodies were detected using the 3,3′,5,5;-tetramethylbenzidine (TMB) chromogenic solution. After 5 to 10 minutes, the reaction was stopped with 1% sulphuric acid and absorbance read at 450 nm.
(§4) There are four major allelic variants within the ecto-domain of LILRB1 in human population [Human Molecular Genetics, 2005, Vol. 14, 2469-2480]; namely c.203T>C (L68P), c.277G>A (A93T), c.425T>C (I142T), and c.464G>T (S155I).

Assay [8] concerns the target T5, Human LILRB1(I142T/S155I) ectodomain fused to mIgG2aFc (human).
T5 construct: The entry already carries the two substitutions
Kind of assay: ELISA, antigen coated, 10 nM antibody.
Text: as §2, §3, §4

Assay [9] deals with T6, Human LILRB1 (D1-D2) fused to mouse IgG2a Fc (human).
T6 construct: also called truncated (D1-D2) version of the LILRB1 ecto-domain
Put plainly: summary table (ELISA); N = No.

The target of assay [10] is T7, Rhesus monkey (Macaca mulatta) LILRB ectodomain fused to mIgG2a Fc (rhesus monkey (Macaca mulatta)).
T7 construct: also called rhesus LILRB-mIgG2a; rhesus LILRB protein
Kind of assay: summary table (ELISA); Rhesus & Cyno LILRB1/2 binding; Y = Yes.

The target of assay [11] is T8, Cynomolgus monkey (Macaca fascicularis) LILRB ectodomain fused to mIgG2a (cynomolgus monkey (Macaca fascicularis)).
T8 construct: also called cynomolgus LILRB protein
Described as above.

The target in assay [12] is LILRA6 recombinant, full-length ectodomain (LILRA6 24-447) (human, UniProt Q6PI73 24-447). Put plainly: multi-point ELISA, antigen coated, apparent EC50. The procedure: (§5) FIG. 32. Binding of Clones 1-5 to selected LILR family members tested by multiple point ELISA. Recombinant LILRB1, LILRB2, LILRB3, LILRA1, LILRA3, LILRA4, and LILRA6, or irrelevant control protein were coated on the ELISA plates. The plates were then blocked with milk in PBST. Next, the plates were incubated with serial dilutions (12.5 nM to 0.02 nM) of Clones 1-5 (A-E). Bound antibodies were detected using HRP-conjugated anti-human Fc antibodies and the chromogenic substrate.
(§6) Binding of Clones 1-5 to selected LILR family members tested by multiple point ELISA. (FIG. 32) Recombinant LILRB1, LILRB2, LILRB3, LILRA1, LILRA3, LILRA4, LILRA6, or irrelevant control protein were coated on the ELISA plates. The plates were then blocked with milk in PBST. Next, the plates were incubated with serial dilutions (12.5 nM to 0.02 nM) of Clone 1-5 (A-E). Bound antibodies were detected using HRP-conjugated anti-human Fc antibodies and the chromogenic substrate.

Assay [13] concerns the target LILRB1 recombinant, full-length ectodomain (human, UniProt Q8NHL6 24-461). Put plainly: multi-point ELISA, antigen coated, apparent EC50. The procedure: as §5, §6
In assay [14] the target is LILRB2 recombinant, full-length ectodomain (LILRB2 22-458) (human, UniProt Q8N423 22-458). Kind of assay: multi-point ELISA, antigen coated, apparent EC50. The procedure:
as §5, §6

The target of assay [15] is LILRA4 recombinant, full-length ectodomain (LILRA4 24-446) (human, UniProt P59901 24-446). Kind of assay: multi-point ELISA, antigen coated, apparent EC50. The procedure: as §5, §6
The target in assay [16] is T9, Human LILRA1 ectodomain (human, UniProt O75019 17-461).
T9 construct: Recombinant protein from a commercial source
Put plainly: multi-point ELISA, antigen coated, apparent EC50. The procedure:
as §5, §6

For assay [17], the target named is LILRB3 recombinant, full-length ectodomain (LILRB3 24-443) (human, UniProt O75022 24-443). Kind of assay: multi-point ELISA, antigen coated, apparent EC50. The procedure:
as §5, §6

Assay [18] addresses T10, Human full length LILRA3 (human, UniProt Q8N6C8 24-439).
T10 construct: Commercial recombinant protein; also the parent of the LILRA3 peptide microarrays
Put plainly: multi-point ELISA, antigen coated, apparent EC50. The procedure:
as §5, §6

The target of assay [19] is T11, Human full length LILRB1 (human, UniProt Q8NHL6 24-650).
T11 construct: Over-expressed on HEK293 cells for flow cytometry; also called LILRB1 on HEK293 cells; cell membrane embedded LILRB1
Put plainly: flow cytometry, displacement of PE-labelled HLA-A2, HLA-E and HLA-G multimers from HEK293 cells overexpressing LILRB1. The procedure:
as §1

T1 sequence (Q8N423 other isoform, or with tags, fused parts or gaps limits assumed): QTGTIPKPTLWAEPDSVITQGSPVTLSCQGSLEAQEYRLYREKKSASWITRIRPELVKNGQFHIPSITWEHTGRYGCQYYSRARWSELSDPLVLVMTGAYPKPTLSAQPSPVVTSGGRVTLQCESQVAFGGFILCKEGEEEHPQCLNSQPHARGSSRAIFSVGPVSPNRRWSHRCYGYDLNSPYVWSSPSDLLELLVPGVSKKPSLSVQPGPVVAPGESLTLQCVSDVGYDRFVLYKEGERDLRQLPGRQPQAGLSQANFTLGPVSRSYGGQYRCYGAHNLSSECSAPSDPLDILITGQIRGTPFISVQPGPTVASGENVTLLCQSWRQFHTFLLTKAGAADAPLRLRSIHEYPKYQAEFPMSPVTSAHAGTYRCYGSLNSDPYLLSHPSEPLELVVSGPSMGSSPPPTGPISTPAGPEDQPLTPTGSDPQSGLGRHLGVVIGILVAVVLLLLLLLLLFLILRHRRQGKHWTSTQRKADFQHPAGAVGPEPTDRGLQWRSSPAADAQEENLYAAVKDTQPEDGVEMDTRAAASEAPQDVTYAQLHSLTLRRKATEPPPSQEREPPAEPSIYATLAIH
LILRB5 recombinant, full-length ectodomain (LILRB5 18-456), sequence (O75023 24-456 limits assumed): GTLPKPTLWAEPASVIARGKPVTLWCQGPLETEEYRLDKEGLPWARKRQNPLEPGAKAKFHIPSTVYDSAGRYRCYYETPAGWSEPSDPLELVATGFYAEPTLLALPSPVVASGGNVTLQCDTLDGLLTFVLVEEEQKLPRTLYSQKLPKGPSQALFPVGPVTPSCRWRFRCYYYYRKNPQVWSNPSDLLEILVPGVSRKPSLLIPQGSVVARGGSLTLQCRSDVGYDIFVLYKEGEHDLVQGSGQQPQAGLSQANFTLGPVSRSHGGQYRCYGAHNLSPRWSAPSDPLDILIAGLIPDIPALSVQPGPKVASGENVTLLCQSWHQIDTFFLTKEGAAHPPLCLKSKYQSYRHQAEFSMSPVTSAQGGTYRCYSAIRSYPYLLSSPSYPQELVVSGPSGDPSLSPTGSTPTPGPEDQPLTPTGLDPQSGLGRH
T2 sequence (Q8N149 24-449 S135L): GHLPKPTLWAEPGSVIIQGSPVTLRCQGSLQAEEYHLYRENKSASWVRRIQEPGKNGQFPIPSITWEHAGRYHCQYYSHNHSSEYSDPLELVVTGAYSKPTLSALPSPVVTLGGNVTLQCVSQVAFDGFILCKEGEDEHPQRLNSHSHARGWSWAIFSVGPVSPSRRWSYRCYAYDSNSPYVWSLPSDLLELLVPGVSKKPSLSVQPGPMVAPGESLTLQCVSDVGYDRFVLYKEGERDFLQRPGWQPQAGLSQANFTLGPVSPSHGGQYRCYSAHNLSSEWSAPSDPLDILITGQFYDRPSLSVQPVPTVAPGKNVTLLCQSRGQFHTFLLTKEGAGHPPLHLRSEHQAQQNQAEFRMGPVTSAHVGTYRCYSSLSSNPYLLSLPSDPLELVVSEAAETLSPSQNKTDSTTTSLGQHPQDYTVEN
LILRA5 recombinant, full-length ectodomain (LILRA5 42-268), sequence (A6NI73 42-268): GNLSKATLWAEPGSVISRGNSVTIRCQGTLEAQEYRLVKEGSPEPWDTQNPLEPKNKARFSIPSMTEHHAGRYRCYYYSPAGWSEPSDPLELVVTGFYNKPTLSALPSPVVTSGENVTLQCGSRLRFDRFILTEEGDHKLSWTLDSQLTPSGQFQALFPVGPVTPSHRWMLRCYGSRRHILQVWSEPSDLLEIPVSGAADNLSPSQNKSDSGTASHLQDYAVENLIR
LILRB3 recombinant, full-length ectodomain (LILRB3 24-443), sequence (O75022 24-443): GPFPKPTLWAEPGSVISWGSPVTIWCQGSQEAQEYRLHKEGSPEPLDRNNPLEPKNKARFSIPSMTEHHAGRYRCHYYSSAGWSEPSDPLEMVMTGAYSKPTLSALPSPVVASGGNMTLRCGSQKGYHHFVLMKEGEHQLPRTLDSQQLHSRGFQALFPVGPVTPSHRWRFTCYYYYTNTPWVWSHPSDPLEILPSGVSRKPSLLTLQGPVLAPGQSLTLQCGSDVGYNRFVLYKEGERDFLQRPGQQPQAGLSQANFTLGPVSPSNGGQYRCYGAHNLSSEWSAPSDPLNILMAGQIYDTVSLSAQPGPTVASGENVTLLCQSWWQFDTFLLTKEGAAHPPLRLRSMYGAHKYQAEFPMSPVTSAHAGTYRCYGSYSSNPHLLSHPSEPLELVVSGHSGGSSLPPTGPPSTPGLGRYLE
T6 sequence (chain, as listed by the source limits assumed): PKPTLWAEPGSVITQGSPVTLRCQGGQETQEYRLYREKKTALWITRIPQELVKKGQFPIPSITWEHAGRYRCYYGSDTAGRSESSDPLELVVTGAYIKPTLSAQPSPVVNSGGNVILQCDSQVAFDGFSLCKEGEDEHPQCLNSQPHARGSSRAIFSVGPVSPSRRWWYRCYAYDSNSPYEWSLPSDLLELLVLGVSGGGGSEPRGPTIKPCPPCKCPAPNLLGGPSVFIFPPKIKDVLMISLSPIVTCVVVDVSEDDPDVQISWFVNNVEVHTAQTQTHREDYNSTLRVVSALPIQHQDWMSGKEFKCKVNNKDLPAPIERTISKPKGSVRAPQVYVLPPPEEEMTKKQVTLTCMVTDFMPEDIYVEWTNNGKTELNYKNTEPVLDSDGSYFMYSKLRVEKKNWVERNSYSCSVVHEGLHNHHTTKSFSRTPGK
T11 sequence (Q8NHL6 24-650 limits assumed): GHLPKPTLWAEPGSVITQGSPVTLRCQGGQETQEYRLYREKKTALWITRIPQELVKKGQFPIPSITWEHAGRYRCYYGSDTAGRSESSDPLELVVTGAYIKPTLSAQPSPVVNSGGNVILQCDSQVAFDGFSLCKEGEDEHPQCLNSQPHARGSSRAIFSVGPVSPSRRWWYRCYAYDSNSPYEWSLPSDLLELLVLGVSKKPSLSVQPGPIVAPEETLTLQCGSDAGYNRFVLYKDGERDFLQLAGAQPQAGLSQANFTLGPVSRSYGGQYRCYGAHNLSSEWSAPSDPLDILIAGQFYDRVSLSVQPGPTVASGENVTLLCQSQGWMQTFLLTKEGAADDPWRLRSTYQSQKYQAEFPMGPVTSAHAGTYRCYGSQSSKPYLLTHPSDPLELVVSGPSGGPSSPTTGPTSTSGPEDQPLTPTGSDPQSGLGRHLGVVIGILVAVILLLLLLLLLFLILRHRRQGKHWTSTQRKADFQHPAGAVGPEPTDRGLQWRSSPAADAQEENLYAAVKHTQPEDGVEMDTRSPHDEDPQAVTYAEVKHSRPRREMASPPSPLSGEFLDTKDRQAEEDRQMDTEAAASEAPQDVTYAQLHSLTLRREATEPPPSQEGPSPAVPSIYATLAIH
T5 sequence (chain, as listed by the source I142T S155I I142T S155I limits assumed): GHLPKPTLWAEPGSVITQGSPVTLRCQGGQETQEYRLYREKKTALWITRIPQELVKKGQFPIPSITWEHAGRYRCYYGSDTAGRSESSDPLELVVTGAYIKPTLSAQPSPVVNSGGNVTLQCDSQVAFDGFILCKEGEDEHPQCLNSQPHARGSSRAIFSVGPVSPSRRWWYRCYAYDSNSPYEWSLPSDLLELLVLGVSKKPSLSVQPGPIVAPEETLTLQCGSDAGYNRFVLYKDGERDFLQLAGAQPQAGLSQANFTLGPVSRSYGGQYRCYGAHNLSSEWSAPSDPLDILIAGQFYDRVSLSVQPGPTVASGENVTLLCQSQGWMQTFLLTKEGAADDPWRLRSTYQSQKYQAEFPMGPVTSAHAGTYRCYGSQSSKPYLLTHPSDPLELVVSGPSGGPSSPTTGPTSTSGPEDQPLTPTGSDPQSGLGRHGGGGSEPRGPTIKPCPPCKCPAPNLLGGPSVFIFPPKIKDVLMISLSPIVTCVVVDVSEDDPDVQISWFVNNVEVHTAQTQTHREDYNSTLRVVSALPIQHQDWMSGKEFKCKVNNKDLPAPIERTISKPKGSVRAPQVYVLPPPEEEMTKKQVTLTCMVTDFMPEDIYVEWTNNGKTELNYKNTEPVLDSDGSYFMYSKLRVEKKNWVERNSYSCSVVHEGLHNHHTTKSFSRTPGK
T4 sequence (chain, as listed by the source L68P A93T L68P A93T limits assumed): as the sequence (chain, as listed by the source I142T S155I I142T S155I limits assumed) above, with L45P, A70T, T119I, I132S counted along it
T9 sequence (O75019 17-461): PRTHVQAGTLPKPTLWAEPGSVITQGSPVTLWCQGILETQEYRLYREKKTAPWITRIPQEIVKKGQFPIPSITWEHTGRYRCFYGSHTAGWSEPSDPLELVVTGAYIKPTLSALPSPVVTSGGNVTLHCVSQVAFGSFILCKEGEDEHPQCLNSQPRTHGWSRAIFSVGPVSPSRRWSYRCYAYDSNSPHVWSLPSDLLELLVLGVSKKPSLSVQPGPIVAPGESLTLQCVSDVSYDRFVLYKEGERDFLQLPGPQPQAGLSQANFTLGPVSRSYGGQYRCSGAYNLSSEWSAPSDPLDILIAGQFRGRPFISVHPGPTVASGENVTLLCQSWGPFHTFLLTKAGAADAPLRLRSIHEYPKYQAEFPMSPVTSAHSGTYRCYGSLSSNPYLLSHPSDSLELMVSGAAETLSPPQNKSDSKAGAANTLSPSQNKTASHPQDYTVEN
LILRA4 recombinant, full-length ectodomain (LILRA4 24-446), sequence (P59901 24-446): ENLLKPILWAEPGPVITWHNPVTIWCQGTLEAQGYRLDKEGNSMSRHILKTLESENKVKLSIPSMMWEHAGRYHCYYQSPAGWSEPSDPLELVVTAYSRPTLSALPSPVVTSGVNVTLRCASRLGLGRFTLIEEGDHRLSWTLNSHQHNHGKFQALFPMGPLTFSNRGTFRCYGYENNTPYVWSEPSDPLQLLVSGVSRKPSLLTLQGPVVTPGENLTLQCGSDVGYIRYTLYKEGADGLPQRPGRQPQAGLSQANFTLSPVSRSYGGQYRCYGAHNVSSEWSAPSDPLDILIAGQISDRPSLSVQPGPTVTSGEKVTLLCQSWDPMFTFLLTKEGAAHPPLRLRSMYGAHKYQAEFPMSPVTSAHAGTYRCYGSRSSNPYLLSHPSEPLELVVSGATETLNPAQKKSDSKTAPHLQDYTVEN
T3 sequence (chain, as listed by the source limits assumed): as the sequence (chain, as listed by the source I142T S155I I142T S155I limits assumed) above, with T119I, I132S counted along it

B1: Reference antibody 2 (anti-human LILRB2 Ab) (antibody, human IgG4 S228P, lambda, V domains shown)
VH: EVQLQQWGAGLLKPSETLSLTCAVYGGSFSGYYWSWIRQPPGKGLEWIGEINHAGSTNYNPSLKSRVTISVDTSKNQFSLKLSSVTAADTAVYYCARLPTRWVTTRYFDLWGRGTLVTVSS
VL: ESVLTQPPSVSGAPGQRVTISCTGSSSNIGAGYDVHWYQQLPGTAPKLLIYGDSNRPSGVPDRFSVSKSGASASLAITGLQAEDEADYYCQSFDNSLSAYVFGGGTQLTVLG
For B1, the binding result in assay [1] is “binds”.

B2: Antibody 2 (antibody, V domains shown)
VH: QVQLVESGGDLVKPGGSLRLSCAASGFTFRDYYMSWIRQAPGKGLEWVSYISPSGSTIFYADSVKGRFTISRDNAKNSLYLQMNSLRAEDTAVYYCAKDRVRLFDYWGQGTLVTVSS
VL: EIVLTQSPATLSLSPGERATLSCRASQSVSSSYLAWYQQKPGQAPRLLIYGASTRATGIPARFSGSGSGTDFTLTISRLEPEDFAVYYCQQRSNWPITFGQGTRLEIK
notes: Fully human antibody; IgG1 and IgG1 LALA variants also made for functional assays; also called Clone 2; Antibody Clone 2
Take B2: the binding result in assay [2] is given as “no binding (tested: 1 nM)”; in [3], “no binding (tested: 1 nM)”; in assay [4], “no binding (tested: 1 nM)”; in assay [5], “no binding (tested: 1 nM)”; in assay [6], “binds”; in assay [7], “binds”. The binding result in assay [8] is recorded as “binds”; in [9], “no binding”; in assay [10], “binds”; in assay [11], “binds”. Besides, the EC50 came to 0.92 nM in assay [12]; 0.78 nM in assay [13]; 0.74 nM in assay [14]; 0.62 nM in assay [15]; 8.37 nM in assay [16]; 0.69 nM in assay [17]. Moreover, the EC50 in [18] was 0.84 nM.

B3: Reference Antibody 3 (anti-human LILRB1 and LILRB2 Ab) (antibody, V domains shown)
VH: QVQLVQSGAEVKKPGASVKVSCKASGYTFTDYYINWVRQAPGQGLEWMGNVNPNDGGTTYNQKFKGRVTMTTDTSTSTAYMELRSLRSDDTAVYYCARREIYFYGTIYYYAMDYWGQGTLVTVSS
VL: DIQLTQSPSFLSASVGDRVTITCRASESVDYYGNSFMYWYQQKPGKAPKLLIYFASNLESGVPSRFSGSGSGTEFTLTISSLQPEDFATYYCQQNNEDPWTFGGGTKVEIK
Regarding B3, the binding result in assay [1] and in [19] was “binds” each time.

The EC50 is the concentration that produces a half-maximal response.
